Results published in US20240024519A1, “RADIOPHARMACEUTICAL COMPOSITIONS OF COPPER FOR TARGETED MOLECULAR IMAGING” (Curium US LLC, priority 2022, published 2024).

Assay: Radiochemical purity (RCP) of dose vials over time after formulation, radio-HPLC
Format: physicochemical
Details: 10 Ci batches, with and without SPE purification (both formulations); post-formulation, i.e. after end of synthesis
Protocol: Two 10 Ci batches of copper Cu-64 PSMA I&T were prepared, wherein the primary difference between them was removal of the purification step. During purification, a solid phase extraction cartridge was used to purify the product by removing radiolabeling buffer and remaining ^64Cu copper chloride starting material; however, this step requires concentration of the batch activity in a small volume (i.e., <1 mL), which can encourage radiolytic damage and result in detrimental impacts to radiochemical purity (RCP). This phenomenon was observed experimentally when comparing the radiochemical purity of copper Cu-64 PSMA I&T prepared with and without purification (FIG. 2). The removal of the purification step yielded a product with a higher RCP of 98.9% (FIG. 2B) versus 92.4% (FIG. 2A). The difference between the two purity profiles was that the primary radiolytic impurity (tR=16.8′-17.2′) was largely absent in the non-purified product. In both formulations, the RCP of individual dose vials prepared thereof was maintained over a period of 51 h post-formulation (i.e., 51 h after end of synthesis).

With “^64Cu-(3S, 7S, 26R, 29R, 32R, 37R)-29-benzyl-32(4-hydroxy-3-iodobenzyl)-5, 13, 20, 28, 31, 34-hexaoxo-37-(4,7,10-tris(carboxymethyl)-1, 4, 7, 10-tetraazacyclododecan-1-yl)-4, 6, 12, 21, 27, 30, 33-heptaazaheptatriacontane-1, 3, 7, 26, 37-pentacarboxylic acid [Cu-64 PSMA I&T]” the “period over which RCP of individual dose vials was maintained” value was 51 h.
